The source of these data is doi:10.1101/2021.12.19.473342.

The stoichiometry N is a count of units in the complex or per binding partner.

For this experiment, the target named is BrxR from Escherichia fergusonii ATCC 35469 plasmid pEFER (Escherichia fergusonii ATCC 35469). Description: SEC. On the technique in general: SEC sorts molecules by how far they enter the pores of the column.

Substance “BrxR from Escherichia fergusonii ATCC 35469 plasmid pEFER (natural protein)” registered a stoichiometry N of 2.
